Residue numbers refer to the chain shown, from its start. In names and notes the source's numbering stands. Entries after “also recorded” stand apart in the source; their conditions may differ.
Tests used:
[1] = system: K3-CHO and Park8-SH-SY5Y cells expressing human Parkin; assay: Parkin cleavage during cellular apoptosis, induction verified by PARP immunoblot, in Parkin expressing cell lines; assay type: cell-based
Source text: Parkin cleavage during cellular apoptosis. […] Lanes 1-4, 6 were probed with T160, lane 5 with PAR-N1 and lane 7 with PAR-C1. The molecular weight is indicated to the left for Parkin (51 kDa) and the Parkin peptides (38 kDa and 11,5 kDa, respectively). The induction of apoptosis was verified biochemically by testing the binding of the same membranes with the mouse monoclonal poly-ADP-ribose (PARP) antibody 66401 A (Pharmigen). […] The generation of the 86 kDa PARP fragment is a recognised marker for apoptosis associated proteolysis.
The stably transfected Parkin expressing cell lines, K3-CHO (FIG. 3, lanes 1-5) and Park8-SH-SY5Y (FIG. 3, lanes 6, 7) were extracted and prepared for immunoblotting as described in example 2. […] FIG. 3, lanes 1-4, 6 were probed with T160, lane 5 with PAR-N1 and lane 7 with PAR-C1 antibodies. The molecular weight is indicated to the left for Parkin (51 kDa) and the Parkin peptides (38 kDa and 11,5 kDa, respectively). […]

[2] = system: apoptosis-associated Parkin cleavage in K3 CHO cells expressing human Parkin; assay: Caspase inhibitors on okadaic acid-induced, apoptosis-associated Parkin cleavage in K3 CHO cells (T160 immunoblot); assay type: cell-based, Chinese hamster; conditions: 10 microM inhibitor, 200 nM okadaic acid for 16 h
Description: K3 CHO cells were treated with 200 nM okadaic acid for 16 h (lanes 2-4) in the presence of 10 microM of the caspase inhibitors YVAD-chloromethylketone (lane 3) and DEVD-chloromethylketone (lane 4). The control cells treated with the DMSO used for solubilising the caspase inhibitors are shown in lane 2. Lane 1 represents non-treated control cells. […] Similar data was obtained in the Park8 SH-SY5Y cells.
The parental cell lines and the Parkin expressing cell lines were extracted in 8 M urea, 1% Triton X 100.20 microgram protein was supplemented to 2% sodium dodecylsulphate, 20 mM dithioerythreitol, 20 mM Tris, pH 6.5, 20% glycerol, heated to 95° C. for 5 min, whereafter the mixture was resolved by 10-20% gradient sodium dodecylsulphate polyacrylamide gelelectrophoresis. The proteins in the gel were electroblotted onto a nitrocellulose membrane and non-specific protein binding was blocked by incubating the membrane in block solution (20 mM Tris, pH 7.4, 130 mM NaCl, 0.5% Triton X100, 5% skimmed milk powder) for 2 hours. The membrane was subsequently incubated with primary antibody (PAR-N1, PAR-C1 and T160 diluted 1/500 in block solution) for 2 hours, rinsed in 20 mM Tris, pH 7.4, 130 mM NaCl, 0.5% Triton X100 and incubated with a second antibody (horse radish peroxidase conjugated swine anti rabbit serum) for 1 hour and rinsed. The bound antibody was then visualised by chemilumenescense according to the manufacturers recommendation (ECL, Amersham Pharmacia Biotech). FIG. 2 panel B, lanes 1 and 5 represent the non-transfected CHO and SH-SY5Y cell lines, respectively. FIG. 2, panel B, lanes 24 represents Parkin expressing CHO cells K3 and lane 6 represents the Parkin expressing SH-SY5Y cell Park 8. Lanes 1, 2, 5 and 6 were incubated with T160, lane 3 with PAR-Ni and lane 4 with PAR-C1. The molecular size marker is indicated to the left in kDa.
K3-CHO cells were treated with 200 nM okadaic acid for 16 h prior to extraction and processing for T160 immunoblot as described in example 2. […]

[3] = system: CHO and SH-SY5Y cell lines; assay: Cytoprotection against mercaptoethanol-induced unfolded protein stress (DAPI count of dead cells); assay type: cell-based; conditions: 3 mM mercaptoethanol for 24h
Description: Mercaptoethanol is a known inducer of unfolded protein stress by inhibiting the normal formation of disulfide bonds in the endoplasmic reticulum.
CHO and SH-SY5Y cell lines were cultured expressing wild type Parkin, D126E Parkin and an empty vector with 3 mM mercaptoethanol for 24h. They were stained with DNA binding fluorescent dye DAPI and fixed in ice cold methanol prior to drying.

[4] = system: apoptosis-associated (caspase) cleavage of human Parkin; assay: Site directed mutagenesis of Parkin Asp residues: apoptosis-associated cleavage in stably transfected CHO and SH-SY5Y cell lines (T160 immunoblot); assay type: cell-based; conditions: 200 nanoM okadaic acid for 16 h
Source text: Site directed mutagenesis of […] 126 in parkin to a glutamate residue reduce the apoptosis associated cleavage of parkin. Caspases are proteinases that always cleave after an Asp residue and FIG. 3 indicated the cleavage takes place within the N-terminal 150 amino acid residues. We mutagenised the parkin expression vector to express human parkin where the Asp in the positions 86 plus 87,106, 115, 126 and 130 were substituted with and Glu. CHO and SHSY5Y cell lines were stably transfected with the expression vectors and used for testing the effect of the mutations on apoptosis-associated parkin cleavage. These cells and the cell lines expressing the normal Parkin were treated with 200 nanoM okadaic acid for 16 h and extracted for T160 immunoblotting. The CHO cell lines are represented in lanes 1-6 and the SH-SY5Y cell lines in lanes 7-12. Wild type Parkin is represented in lanes 1, 2, 7, 8; D126E in lanes 3, 4, 9, 10; D130E in lanes 5, 6, 11, 12. Lanes 1, 3, 5, 7, 9, 11 represent untreated cells and lanes 2, 4, 6, 8, 10, 12 represent okadaic treated cells. The positions of the 51 kDa and 38 kDa Parkin proteins are indicated by the upper and lower left arrows.
Caspases are proteinases that always cleave after an Asp residue. Cell lines were generated where Asp residues were changed to Glu residues to test if this amino acid position might represent the caspase cleavage sites. The Parkin expression vector used for generating the Parkin expressing K3 CHO and Park8 SH-SY5Y cell lines was changed by PCR mediated site directed mutagenesis so the nucleotide No.479 was changed from a cytosine to an adenine (ParkinD126E). The cDNA encoding Parkin was kindly provided by Dr. Mizuno, Juntendo University School of Medicine, Japan. The Parkin cDNA was PCR amplified using the primers: […]
The amplified Parkin cDNA was cloned into the Nhe I and EcoR I site of the pcDNA3.1/Zeo(−) vector and the Parkin cDNA sequence was checked by sequencing. To prepare the D126E mutant, the inventors performed site-directed mutagenesis using the Quickchange Mutagenesis Kit (Stratagene) according to the manufactures instructions. Complementary strands of the oligonucleotide: 5′-[…]-3′ were used for preparing the D126E mutated construct. Parkin vectors containing Parkin mutated for D130E and DD86, 87EE were constructed by analogous techniques. This vector was then transfected into SH-SYSY or CHO cells using FUGENE6 (Boehringer Mannheim) and stably transfected cell lines were selected using 25 microgram Zeocinl ml medium (SH-SY5Y cells) or 300 microgram Zeocin/ml medium (CHO cells). The sequences of the vectors were verified by DNA sequencing. The expression vectors were used to generate the stably transfected DD86, 87EE, D126E and D130E CHO and SH-SY5Y cell lines expressing Parkin protein with the indicated substitutions of amino acids. These cells and the cell lines expressing the normal Parkin were treated with 200 nanoM okadaic acid for 16 h and extracted for T160 immunoblotting. The CHO cell lines are represented in lanes FIG. 5, 1-6 and the SH-SY5Y cell lines in lanes 7-12. Wild type Parkin is represented in lanes 1, 2, 7, 8; D126E in lanes 3, 4, 9, 10; D130E in lanes 5, 6, 11, 12. Lanes 1, 3, 5, 7, 9, 11 represent untreated cells and lanes 2, 4, 6, 8, 10, 12 represent okadaic treated cells. The positions of the 51 kDa and 38 kDa Parkin proteins are indicated by the upper and lower left arrows.

[5] = system: CHO and SH-SY5Y cell lines; conditions: cell death induced by 3 mM mercaptoethanol; Imai et al. 2000, FIG. 4A; cited from earlier work

Molecule: CC[C@@]1(O)C(=O)OCc2c1cc1n(c2=O)Cc2cc3ccccc3nc2-1 [campthotecin]
- Induction of apoptosis (generation of caspase 3 generated 86 kDa PARP fragment) ([1]; 5 microgram/ml for 30 hours, K3-CHO): 86 kDa fragment was generated

Molecule: C=C1[C@@H](O)[C@@H]2O[C@]3(CC[C@H](/C=C/[C@@H](C)[C@@H]4CC(C)=C[C@@]5(O[C@H](C[C@@](C)(O)C(=O)O)CC[C@H]5O)O4)O3)CC[C@H]2O[C@@H]1[C@@H](O)C[C@H](C)[C@H]1O[C@@]2(CCCCO2)CC[C@H]1C [okadaic acid]
- Induction of apoptosis (generation of caspase 3 generated 86 kDa PARP fragment) ([1]; 200 nM for 16 hours): 86 kDa fragment was generated

Molecule: DEVD-chloromethylketone
- Effect on apoptosis-associated Parkin cleavage (51 kDa Parkin to 38 kDa fragment) [2]: abrogate the cleavage; also recorded: cleavage is abrogated

Molecule: YVAD-chloromethylketone
- Effect on apoptosis-associated Parkin cleavage (51 kDa Parkin to 38 kDa fragment) [2]: cleavage is abrogated
- Effect on apoptosis-associated Parkin cleavage (51 kDa Parkin to 38 kDa fragment) ([2]; listed as WAD-chloromethylketone): abrogate the cleavage

Molecule: OCCS [mercaptoethanol]
- Parkin cleavage after D126 following induced cell death ([1]; T160 immunoblotting as in example 3): followed by Parkin cleavage after D126

B1: D126E: human Parkin with Asp 126 substituted by Glu (SEQ ID NO: 4) (protein, listed as Homo sapiens)
chain: MIVFVRFNSSHGFPVEVDSDTSIFQLKEVVAKRQGVPADQLRVIFAGKELRNDWTVQNCDLDQQSIVHIVQRPWRKGQEMNATGGDDPRNAAGGCEREPQSLTRVDLSSSVLPGDSVGLAVILHTESRKDSPPAGSPAGRSIYNSFYVYCKGPCQRVQPGKLRVQCSTCRQATLTLTQGPSCWDDVLIPNRMSGECQSPHCPGTSAEFFFKCGAHPTSDKETSVALHLIATNSRNITCITCTDVRSPVLVFQCNSRHVICLDCFHLYCVTRLNDRQFVHDPQLGYSLPCVAGCPNSLIKELHHFRILGEEQYNRYQQYGAEECVLQMGGVLCPRPGCGAGLLPEPDQRKVTCEGGNGLGCGFAFCRECKEAYHEGECSAVFEASGTTTQAYRVDERAAEQARWEAASKETIKKTTKPCPRCHVPVEKNGGCMHMKCPQPQCRLEWCWNCGCEWNRVCMGDHWFDV
modifications: mat_peptide (1)..() Parkin with a D126E mutation
- Survival of cells expressing the Parkin variant compared to wild type Parkin [3]: enhanced survival
- Apoptosis-associated cleavage of mutated Parkin compared to wild type [4]: abrogated the cleavage; also recorded: drastically reduced parkin cleavage

B2: D130E: human Parkin with Asp 130 substituted by Glu (protein)
chain: B1 chain with E126D, D130E, S223P
- Apoptosis-associated cleavage of mutated Parkin compared to wild type [4]: no significant effect; also recorded: cleavage as the WT parkin

B3: DD86, 87EE: human Parkin double mutant, Asp 86 and 87 substituted by Glu (protein)
chain: B1 chain with D86E, D87E, E126D, S223P
- Apoptosis-associated cleavage of mutated Parkin compared to wild type [4]: no significant effect; also recorded: cleavage as the WT parkin

B4: Parkin: wild type human Parkin protein (SEQ ID NO: 2) (protein, listed as Homo sapiens)
chain: B1 chain with E126D, S223P
modifications: mat_peptide (1)..() Native Parkin
- Protection against cell death by Parkin expression [5]: approximately 50%

B5: D105E: human Parkin Asp to Glu mutant (position printed as 105 and 106) (protein)
chain: B1 chain with D106E, E126D, S223P
- Apoptosis-associated cleavage of mutated Parkin compared to wild type [4]: cleavage as the WT parkin

B6: D115E: human Parkin with Asp 115 substituted by Glu (protein)
chain: B1 chain with D115E, E126D, S223P
- Apoptosis-associated cleavage of mutated Parkin compared to wild type [4]: cleavage as the WT parkin

Source: patent publication US20040198650A1, “Means for inhibiting proteolytical processing of parkin” (priority 2001, published 2004)
